US20180155451A1 (published 2018)

T1: FcγRIIb (extracellular domain, C-terminal His tag) (human, UniProt P31994 43-217)
T1 construct: extracellular domain; Soluble receptor used as analyte in Biacore; also called FcgRIIb; 2b; not shown: His tag attached to the C terminus
T1 sequence (looked up): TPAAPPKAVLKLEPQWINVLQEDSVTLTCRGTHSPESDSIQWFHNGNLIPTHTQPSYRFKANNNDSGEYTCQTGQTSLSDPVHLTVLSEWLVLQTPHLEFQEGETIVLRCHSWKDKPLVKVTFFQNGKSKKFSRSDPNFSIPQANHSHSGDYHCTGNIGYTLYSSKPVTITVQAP

T2: FcγRIIa R (extracellular domain, C-terminal His tag) (human, UniProt P12318 34-217)
T2 construct: extracellular domain; Soluble receptor used as analyte in Biacore; also called FcgRIIa R; 2aR; not shown: His tag attached to the C terminus
T2 sequence (looked up): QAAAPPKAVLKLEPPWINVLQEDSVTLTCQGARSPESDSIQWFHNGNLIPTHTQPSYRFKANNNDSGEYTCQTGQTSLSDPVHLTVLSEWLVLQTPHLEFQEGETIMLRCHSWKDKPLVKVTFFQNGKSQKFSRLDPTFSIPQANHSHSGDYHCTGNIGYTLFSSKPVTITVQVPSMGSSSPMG

T3: FcgRIIa R extracellular domain with C-terminal His tag (human, UniProt P12318 34-217)
T3 construct: extracellular domain; also called FcγRIIa R; FcγRIIa type R; not shown: His tag attached to the C terminus
T3 sequence (looked up): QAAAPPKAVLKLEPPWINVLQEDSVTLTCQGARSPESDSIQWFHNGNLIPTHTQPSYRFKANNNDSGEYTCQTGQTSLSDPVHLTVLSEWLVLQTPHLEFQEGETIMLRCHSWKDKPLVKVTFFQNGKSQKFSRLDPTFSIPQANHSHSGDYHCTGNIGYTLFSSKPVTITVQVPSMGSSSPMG

T4: FcgRIIa H extracellular domain with C-terminal His tag (human, UniProt P12318 34-217)
T4 construct: extracellular domain; also called FcγRIIa H; FcγRIIa type H; not shown: His tag attached to the C terminus
T4 sequence (looked up): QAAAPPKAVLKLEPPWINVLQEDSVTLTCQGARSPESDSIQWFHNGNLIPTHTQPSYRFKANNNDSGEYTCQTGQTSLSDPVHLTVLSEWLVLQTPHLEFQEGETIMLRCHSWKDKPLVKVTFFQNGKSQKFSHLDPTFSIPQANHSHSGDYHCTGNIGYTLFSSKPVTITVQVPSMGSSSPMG


Key:
[1] = molecular target: T1, FcγRIIb (extracellular domain, …); experiment: SPR (Biacore T100), antibody captured on antigen peptide chip, FcγR as analyte; relative binding amount
Description: (§1) The heterodimerized antibodies He Abs in which one of the H chains was introduced with an alteration were assayed for their binding activities to each activating FcγR and inhibitory FcγR according to the method described in Example 4. […] The activating FcγRs in FIGS. 26, 27, 28, and 29 are FcγRIa, FcγRIIa (R), FcγRIIa (H), and FcγRIIIa, respectively.
(§2) Analysis of interaction between objective antibody and the FcγR was carried out using Biacore T100 (GE Healthcare). HBS-EP+ (GE Healthcare) was used as the running buffer, and the measurement temperature was set to 25° C. Chips produced by immobilizing the antigen peptide by the amine coupling method to a Series S Sencor Chip CM5 (GE Healthcare), or alternatively, chips produced by allowing preliminarily biotinylated antigen peptides to interact with and immobilize onto a Series S Sensor Chip SA (certified) (GE Healthcare) were used. Antibodies of interest were captured onto an antigen peptide-immobilized chip, and allowed to interact to each FcγR diluted with running buffer. To regenerate and repeatedly use the chip, the antibodies captured on the chip were washed off by reacting 10 mM glycine-HCl, pH 1.5.

[2] = molecular target: T2, FcγRIIa R (extracellular domain, …); experiment: as above
Description: as §1, §2

[3] = molecular target: T2, FcγRIIa R (extracellular domain, …); experiment: SPR (Biacore); He/Con for FcγRIIa R divided by He/Con for FcγRIIb
Description: as §1, §2

[4] = molecular target: T3, FcgRIIa R extracellular domain with …; experiment: ratio of SPR (Biacore) KDs, FcγRIIb as reference; antibody captured on chip, FcγR as analyte
Description: (§3) These antibodies were assessed for the binding activity to each FcγR according to the method described in Reference Example 2.
as §2
(§4) The FcγR-binding activity of each antibody was assessed primarily using as an indicator the FcγR-binding activity and dissociation constant for FcγR.

[5] = molecular target: T4, FcgRIIa H extracellular domain with …; experiment: as above
Description: as §3, §2, §4

| Binder | He/Con_2b (IIb binding) [1] | He/Con_2aR (IIaR binding) [2] | He_2aR/2b (IIaR/IIb) [3] | A/I ratio (KD for FcγRIIb / KD for FcγRIIa R) [4] | A/I ratio (KD for FcγRIIb / KD for FcγRIIa H) [5] |
| --- | --- | --- | --- | --- | --- |
| heterodimerized antibody GpH7-A5/GpH7-B3 variant L328_13S/GpL16-k0 (antibody, human IgG1, kappa, Anti-glypican-3 IgG1 with the alteration in only one H chain (the GpH7-B3 chain); also called He Ab) heavy 1: not shown heavy 2: not shown light: DIVMTQSPLSLPVTPGEPASISCQASESLVHSNRNTYLHWYLQKPGQSPQLLIYKVSNRFSGVPDRFSGSGSGTDFTLKISRVEAEDVGVYYCSQNTHVPPTFGQGTKVEIERTVAAPSVFIFPPSDEQLKSGTASVVCLLNNFYPREAKVQWKVDNALQSGNSQESVTEQDSKDSTYSLSSTLTLSKADYEKHKVYACEVTHQGLSSPVTKSFNRGEC | 149 % of control (GpH7-A5/GpH7-B3/GpL16-k0 = 100) | 117 % of control (GpH7-A5/GpH7-B3/GpL16-k0 = 100) | 0.78 ratio | – | – |
| GpH7-Kn056/GpH7-Hl055/GpL16-k0 (antibody, human IgG1, kappa, Knob chain L234Y/L235Y/G236A/H268D/Q295L/S298A; hole chain G236A/S239D/Q295L/A330M/I332E; also called Kn056/Hl055) heavy 1: QVQLVQSGAEVKKPGASVTVSCKASGYTFTDYEMHWIRQPPGEGLEWIGAIDPKTGDTAYSESFQDRVTLTADKSTSTAYMELSSLTSEDTAVYYCTRFYSYTYWGQGTLVTVSSASTKGPSVFPLAPSSKSTSGGTAALGCLVKDYFPEPVTVSWNSGALTSGVHTFPAVLQSSGLYSLSSVVTVPSSSLGTQTYICNVNHKPSNTKVDKKVEPKSCDKTHTCPPCPAPEYYAGPSVFLFPPKPKDTLMISRTPEVTCVVVDVSDEDPEVKFNWYVDGVEVHNAKTKPREELYNATYRVVSVLTVLHQDWLNGKEYKCKVSNKALPAPIEKTISKAKGQPREPQVCTLPPSRDELTKNQVSLWCLVKGFYPSDIAVEWESNGQPENNYKTTPPVLDSDGSFFLYSKLTVDKSRWQQGNVFSCSVMHEALHNHYTQKSLSLSP heavy 2: QVQLVQSGAEVKKPGASVTVSCKASGYTFTDYEMHWIRQPPGEGLEWIGAIDPKTGDTAYSESFQDRVTLTADKSTSTAYMELSSLTSEDTAVYYCTRFYSYTYWGQGTLVTVSSASTKGPSVFPLAPSSKSTSGGTAALGCLVKDYFPEPVTVSWNSGALTSGVHTFPAVLQSSGLYSLSSVVTVPSSSLGTQTYICNVNHKPSNTKVDKKVEPKSCDKTHTCPPCPAPELLAGPDVFLFPPKPKDTLMISRTPEVTCVVVDVSHEDPEVKFNWYVDGVEVHNAKTKPREELYNSTYRVVSVLTVLHQDWLNGKEYKCKVSNKALPMPEEKTISKAKGQPREPQVYTLPPSRCELTKNQVSLSCAVKGFYPSDIAVEWESNGQPENNYKTTPPVLDSDGSFFLVSKLTVDKSRWQQGNVFSCSVMHEALHNHYTQKSLSLSP light: DIVMTQSPLSLPVTPGEPASISCQASESLVHSNRNTYLHWYLQKPGQSPQLLIYKVSNRFSGVPDRFSGSGSGTDFTLKISRVEAEDVGVYYCSQNTHVPPTFGQGTKVEIERTVAAPSVFIFPPSDEQLKSGTASVVCLLNNFYPREAKVQWKVDNALQSGNSQESVTEQDSKDSTYSLSSTLTLSKADYEKHKVYACEVTHQGLSSPVTKSFNRGEC | – | – | – | 16 | 8.7 |
| heterodimerized antibody GpH7-A5/GpH7-B3 variant I332_11K/GpL16-k0 (antibody, human IgG1, kappa, Anti-glypican-3 IgG1 with the alteration in only one H chain (the GpH7-B3 chain); also called He Ab) heavy 1: not shown heavy 2: not shown light: DIVMTQSPLSLPVTPGEPASISCQASESLVHSNRNTYLHWYLQKPGQSPQLLIYKVSNRFSGVPDRFSGSGSGTDFTLKISRVEAEDVGVYYCSQNTHVPPTFGQGTKVEIERTVAAPSVFIFPPSDEQLKSGTASVVCLLNNFYPREAKVQWKVDNALQSGNSQESVTEQDSKDSTYSLSSTLTLSKADYEKHKVYACEVTHQGLSSPVTKSFNRGEC | 70.9 % of control (GpH7-A5/GpH7-B3/GpL16-k0 = 100) | 43.1 % of control (GpH7-A5/GpH7-B3/GpL16-k0 = 100) | 0.61 ratio | – | – |
| GpH7-Kn045/GpH7-Hl055/GpL16-k0 (antibody, human IgG1, kappa, Knob chain L234Y/L235Y/G236A/H268D/S298A; hole chain G236A/S239D/Q295L/A330M/I332E; also called Kn045/Hl055) heavy 1: QVQLVQSGAEVKKPGASVTVSCKASGYTFTDYEMHWIRQPPGEGLEWIGAIDPKTGDTAYSESFQDRVTLTADKSTSTAYMELSSLTSEDTAVYYCTRFYSYTYWGQGTLVTVSSASTKGPSVFPLAPSSKSTSGGTAALGCLVKDYFPEPVTVSWNSGALTSGVHTFPAVLQSSGLYSLSSVVTVPSSSLGTQTYICNVNHKPSNTKVDKKVEPKSCDKTHTCPPCPAPEYYAGPSVFLFPPKPKDTLMISRTPEVTCVVVDVSDEDPEVKFNWYVDGVEVHNAKTKPREEQYNATYRVVSVLTVLHQDWLNGKEYKCKVSNKALPAPIEKTISKAKGQPREPQVCTLPPSRDELTKNQVSLWCLVKGFYPSDIAVEWESNGQPENNYKTTPPVLDSDGSFFLYSKLTVDKSRWQQGNVFSCSVMHEALHNHYTQKSLSLSP heavy 2: QVQLVQSGAEVKKPGASVTVSCKASGYTFTDYEMHWIRQPPGEGLEWIGAIDPKTGDTAYSESFQDRVTLTADKSTSTAYMELSSLTSEDTAVYYCTRFYSYTYWGQGTLVTVSSASTKGPSVFPLAPSSKSTSGGTAALGCLVKDYFPEPVTVSWNSGALTSGVHTFPAVLQSSGLYSLSSVVTVPSSSLGTQTYICNVNHKPSNTKVDKKVEPKSCDKTHTCPPCPAPELLAGPDVFLFPPKPKDTLMISRTPEVTCVVVDVSHEDPEVKFNWYVDGVEVHNAKTKPREELYNSTYRVVSVLTVLHQDWLNGKEYKCKVSNKALPMPEEKTISKAKGQPREPQVYTLPPSRCELTKNQVSLSCAVKGFYPSDIAVEWESNGQPENNYKTTPPVLDSDGSFFLVSKLTVDKSRWQQGNVFSCSVMHEALHNHYTQKSLSLSP light: DIVMTQSPLSLPVTPGEPASISCQASESLVHSNRNTYLHWYLQKPGQSPQLLIYKVSNRFSGVPDRFSGSGSGTDFTLKISRVEAEDVGVYYCSQNTHVPPTFGQGTKVEIERTVAAPSVFIFPPSDEQLKSGTASVVCLLNNFYPREAKVQWKVDNALQSGNSQESVTEQDSKDSTYSLSSTLTLSKADYEKHKVYACEVTHQGLSSPVTKSFNRGEC | – | – | – | 18 | 8.3 |
| heterodimerized antibody GpH7-A5/GpH7-B3 variant L328_15Y/GpL16-k0 (antibody, human IgG1, kappa, Anti-glypican-3 IgG1 with the alteration in only one H chain (the GpH7-B3 chain); also called He Ab) heavy 1: not shown heavy 2: not shown light: DIVMTQSPLSLPVTPGEPASISCQASESLVHSNRNTYLHWYLQKPGQSPQLLIYKVSNRFSGVPDRFSGSGSGTDFTLKISRVEAEDVGVYYCSQNTHVPPTFGQGTKVEIERTVAAPSVFIFPPSDEQLKSGTASVVCLLNNFYPREAKVQWKVDNALQSGNSQESVTEQDSKDSTYSLSSTLTLSKADYEKHKVYACEVTHQGLSSPVTKSFNRGEC | 193 % of control (GpH7-A5/GpH7-B3/GpL16-k0 = 100) | 136 % of control (GpH7-A5/GpH7-B3/GpL16-k0 = 100) | 0.7 ratio | – | – |
| heterodimerized antibody GpH7-A5/GpH7-B3 variant L328_18N/GpL16-k0 (antibody, human IgG1, kappa, Anti-glypican-3 IgG1 with the alteration in only one H chain (the GpH7-B3 chain); also called He Ab) heavy 1: not shown heavy 2: not shown light: DIVMTQSPLSLPVTPGEPASISCQASESLVHSNRNTYLHWYLQKPGQSPQLLIYKVSNRFSGVPDRFSGSGSGTDFTLKISRVEAEDVGVYYCSQNTHVPPTFGQGTKVEIERTVAAPSVFIFPPSDEQLKSGTASVVCLLNNFYPREAKVQWKVDNALQSGNSQESVTEQDSKDSTYSLSSTLTLSKADYEKHKVYACEVTHQGLSSPVTKSFNRGEC | 80.8 % of control (GpH7-A5/GpH7-B3/GpL16-k0 = 100) | 59.4 % of control (GpH7-A5/GpH7-B3/GpL16-k0 = 100) | 0.73 ratio | – | – |
| heterodimerized antibody GpH7-A5/GpH7-B3 variant L328_20W/GpL16-k0 (antibody, human IgG1, kappa, Anti-glypican-3 IgG1 with the alteration in only one H chain (the GpH7-B3 chain); also called He Ab) heavy 1: not shown heavy 2: not shown light: DIVMTQSPLSLPVTPGEPASISCQASESLVHSNRNTYLHWYLQKPGQSPQLLIYKVSNRFSGVPDRFSGSGSGTDFTLKISRVEAEDVGVYYCSQNTHVPPTFGQGTKVEIERTVAAPSVFIFPPSDEQLKSGTASVVCLLNNFYPREAKVQWKVDNALQSGNSQESVTEQDSKDSTYSLSSTLTLSKADYEKHKVYACEVTHQGLSSPVTKSFNRGEC | 235 % of control (GpH7-A5/GpH7-B3/GpL16-k0 = 100) | 155 % of control (GpH7-A5/GpH7-B3/GpL16-k0 = 100) | 0.66 ratio | – | – |
